The values below come from the RNAGym collection of RNA variant scans (doi:10.1073/pnas.2313332121).

Sequences and labels used below:
B1: TPR t1 (parent)
chain: GACCAAUCUGCCCUCAGAGCUCGAGAACAUCUUCGGAUGCAGAGGAGGCAGGCUUCGGUGGCGCGAUAGCGCCAACGUCCUCAACCUCCAAUGCAUCCCACCACAUGAUGAUGCCUGAAGAGCCUUGGUUUUUUG

This data set covers variants of B1. Put plainly: polymerase ribozyme fitness, log enrichment relative to wild type (log ratio); higher = more active; in vitro selection for triplet polymerase activity. The method, boiled down: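 Mutant libraries of both subunits of a heterodimeric triplet polymerase ribozyme were PCR-built, transcribed, and selected once in triplicate, with frozen incubation at −7 °C and capture of gel-excised extended constructs on streptavidin beads before RT-PCR. Illumina sequencing of input and output libraries was filtered to genotypes with ≥10 input reads and ≥1 read per output. Fitness is the logarithm of genotype enrichment over wild-type enrichment, using inverse-variance-weighted replicate averages. The logarithm is base 2.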
With U7G G10U C79G, the “polymerase ribozyme fitness (log ratio)” value is -1.66. As for C8U C56A, the figure is 0.00842.

With C11G A29U A46G C72A A100C A119U, the “polymerase ribozyme fitness (log ratio)” value was -3.42. As for C82U C94U C114A, the figure is -2.17; as for G36U A46C, -2.09.

As for C70G A75C C115A, the “polymerase ribozyme fitness (log ratio)” value was -1.54. As for A6C U9G G69U A83G A91C G117U, the figure is -0.828; as for G63U C114G G117U, -5.98. As for C3U C12A G61C A84C U130C U133G, the figure is -2.37; as for C70A G122U, -1.64.

On to C15U G69A G113C, for which the “polymerase ribozyme fitness (log ratio)” value is -5.7. With G63C C101U G127U, the “polymerase ribozyme fitness (log ratio)” value is -1.08. As for A2U C12A U55G G61A C102A C104U, the figure is -4.56; as for A46G A108G G117A, -4.03; as for A18C A29G G107U C124G U125C, -7.59. For G128C U131A, the “polymerase ribozyme fitness (log ratio)” value is -1.91. As for C20G C56U C72U, the figure is -3.6. As for A46U C73A C123G G127A, the figure is -0.933; as for C28G G61A, -2.51. As for C20U G135U, the figure is -1.97; as for G36C C64U G93A A100C, -3.67. As to C88A G107A, the “polymerase ribozyme fitness (log ratio)” value was -5.92. Take G48U C53A C62U C82U U106A A108G: the “polymerase ribozyme fitness (log ratio)” value was -1.03. As for C11G C13A C82G A84G, the figure is -1.63.

Consider A5U U14G U59A C62U, for which the “polymerase ribozyme fitness (log ratio)” value is -2.15. Regarding G44C A95U G110A, the “polymerase ribozyme fitness (log ratio)” value is -2.88.

Take C20A C49A G63U: the “polymerase ribozyme fitness (log ratio)” value is -4.62. On to C62U U132A, for which the “polymerase ribozyme fitness (log ratio)” value was -0.469. As for C4U C97G, the figure is -3.97.

For G36C G44C C73U G110C C124U U125A, the “polymerase ribozyme fitness (log ratio)” value is -4.74. As for C13U U92A, the figure is -2.13. As for C64U C85A, the figure is -3.12; as for U59G A74G, -0.396; as for C3U C11A G47A C72A G110U, -2.89. As for A18U G60A, the figure is -2.24; as for A41U U87G, -0.681.

As for C56A C73U C124A, the “polymerase ribozyme fitness (log ratio)” value amounted to 1.29.

Consider A2U C79U C104A, for which the “polymerase ribozyme fitness (log ratio)” value was -4.26.

As to U7G G63A C86G C94A G113U, the “polymerase ribozyme fitness (log ratio)” value was -5.43. Regarding C72G C104A U116A, the “polymerase ribozyme fitness (log ratio)” value is -5.17. As for A74U G128U U130C, the figure is -0.708. As for C8A G52A C98A, the figure is -4.9. As for U55A U78G C82A G110A, the figure is -2.58. For C13U C79A C115A G127C, the “polymerase ribozyme fitness (log ratio)” value is -1.14. As to G58C C101U G122A, the “polymerase ribozyme fitness (log ratio)” value was -1.1. For C22A A75U U78A U116G, the “polymerase ribozyme fitness (log ratio)” value is -4.77.

In the case of C15A A41U A43U G61A G113A G122A, the “polymerase ribozyme fitness (log ratio)” value is -5.83. As for C11U C62G, the figure is -1.21; as for G36C A37C A41G G61U, -4.4. As for A50G C64U, the figure is 0.0869; as for A26G A43U G69U U112A, -0.179; as for A5G U9G C12A U78C G93A, -0.124.

As for C11G U21A C53A C97G, the “polymerase ribozyme fitness (log ratio)” value was -3.53. As for C102U G113A, the figure is -2.86; as for G36U U106A, -1.6.

For the variant A46U C56A G93A G120A C123U, the “polymerase ribozyme fitness (log ratio)” value was -1.16. As for A29U C62U A74C U81C C124A, the figure is -1.11; as for G57C G61U U96G, -1.85. As for C4G G44A G60C A111G, the figure is -3.78; as for G17U G48C, -2.61. For the variant A6U A68G A75U U92A C123A, the “polymerase ribozyme fitness (log ratio)” value was -4.87. For the variant C28U C73G G93C, the “polymerase ribozyme fitness (log ratio)” value is -3.34. As for C70U U129C, the figure is -0.753; as for G63C A91U C114A A118G U132A, -4.5; as for G23C C123A, -6.41. As for C101U C123A, the figure is 0.0488; as for A50G U106G U116G, -3.36. As for C11A C40A C49G C94U, the figure is -3.79. On to C34A C102U, for which the “polymerase ribozyme fitness (log ratio)” value was -1.64. In the case of G61A A121U, the “polymerase ribozyme fitness (log ratio)” value turned out to be 2.32. For G10A G39U G51A C70U, the “polymerase ribozyme fitness (log ratio)” value was -5.24.

U9G C12A U14C G44C G63A G77A G93A: the “polymerase ribozyme fitness (log ratio)” value is -2.85. As for C40U C104A, the “polymerase ribozyme fitness (log ratio)” value is -2.08. As for C20A G52C, the figure is -2.97; as for C28A C72G, -2.92; as for G48C C72G U78G U92A C124G, -2.22. As for U9G G110C, the figure is -4.11. As for C73G C80U C123G, the figure is -0.835; as for G63C G120C U131A, 0.5; as for U78C G120A, 0.768. As to C3U C20A A46G C72G G113U, the “polymerase ribozyme fitness (log ratio)” value was -0.27. With G58A A103G, the “polymerase ribozyme fitness (log ratio)” value was -4.88. As for A90G C104U, the figure is -0.0421.
